Results on three variants are retold here after IntAct's records for PubMed 16537494.

B1: Epsin-1 (Saccharomyces cerevisiae), Q12518 (parent)
chain: MSKQFVRSAKNLVKGYSSTQVLVRNATSNDNHQVSKDSLIELAEKSYDSADFFEIMDMLDKRLNDKGKYWRHIAKALTVIDYLIRFGSENCVLWCRENLYIIKTLKEFRHEDDEGIDQGQIVRVKAKELTALLSDDERLNEERNMNIKGRNRKGRRRRGTGRSDENDDDLQRAISASRLTAEEDERRRKQDEDYETALQLSKEEEELKRLQDLQRMQQQQGQQQLQQPMYYDIFGNPITPEEYAQFQLQQQQQQQQQQLQQQPMYYDVFGNPITPEELAQFQQQQQLQEQQYLASMQQQQQAMSNNPFAKSEQSSSSPKRNQLVAASSPQQLQQQKQQEPLIQNRTGNQSMTDKYSKLNELLATGTGIDTFGNVGEARIPAQHTKTGTFINSQGTGYRQVSDDPNHNPFLNSQYTGLPSTSVVPTQTGYGFGNQSQQQSQNNGSNNRGYTLIDL
partner: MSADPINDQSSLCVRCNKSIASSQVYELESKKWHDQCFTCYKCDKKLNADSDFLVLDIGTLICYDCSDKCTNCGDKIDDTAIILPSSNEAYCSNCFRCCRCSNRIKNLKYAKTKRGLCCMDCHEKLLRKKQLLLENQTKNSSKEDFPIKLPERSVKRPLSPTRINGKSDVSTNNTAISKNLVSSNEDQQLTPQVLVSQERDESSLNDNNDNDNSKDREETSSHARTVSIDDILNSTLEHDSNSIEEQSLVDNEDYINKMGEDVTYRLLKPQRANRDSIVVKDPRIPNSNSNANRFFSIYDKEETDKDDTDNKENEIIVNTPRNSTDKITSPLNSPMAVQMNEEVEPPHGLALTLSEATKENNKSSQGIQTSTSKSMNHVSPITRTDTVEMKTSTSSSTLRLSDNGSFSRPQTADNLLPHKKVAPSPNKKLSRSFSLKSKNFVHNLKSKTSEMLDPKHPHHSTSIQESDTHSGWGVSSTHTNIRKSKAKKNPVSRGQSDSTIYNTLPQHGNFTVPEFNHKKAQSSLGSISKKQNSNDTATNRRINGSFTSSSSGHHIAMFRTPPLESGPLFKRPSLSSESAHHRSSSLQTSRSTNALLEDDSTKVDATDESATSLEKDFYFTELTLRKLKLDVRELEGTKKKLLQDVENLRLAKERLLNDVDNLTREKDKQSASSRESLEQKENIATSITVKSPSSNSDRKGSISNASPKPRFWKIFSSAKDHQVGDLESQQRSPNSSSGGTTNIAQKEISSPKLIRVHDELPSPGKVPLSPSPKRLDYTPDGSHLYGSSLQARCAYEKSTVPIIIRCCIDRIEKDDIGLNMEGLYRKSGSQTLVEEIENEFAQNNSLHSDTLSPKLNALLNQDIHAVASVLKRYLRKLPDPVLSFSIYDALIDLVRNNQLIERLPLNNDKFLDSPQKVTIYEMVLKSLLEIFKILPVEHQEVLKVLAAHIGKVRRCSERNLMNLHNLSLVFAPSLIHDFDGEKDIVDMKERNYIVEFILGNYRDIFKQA

The variants in the first assay derive from B1. The note with it: with rga2_yeast RGA2, Q06407.
For the variant Y100R;T104D, the “effect of a mutation on the interaction” value is “disrupting interaction strength”.

With T104D, the “effect of a mutation on the interaction” value is recorded as “disrupting interaction strength”.

Variants of B1 are the subject of a further assay. As to conditions: with rga2_yeast RGA2, Q06407. This is another data set of the same source.
For Y100R, the “effect of a mutation on the interaction” value was “disrupting interaction strength”.
